Experimental data reported in patent CN109776679A.

Biological target: T1, 丝氨酸蛋白酶抑制因子SPINK1的第10-19个氨基酸片段 (synthetic SPINK1 peptide, aa 10-19)
T1 sequence (peptide): SALALLSLSG
Test: antibody titer; method and coated antigen not stated there, taken to be ELISA on the coated immunogen peptide

抗体最低作用浓度: 0.0825 µg/mL
效价 (dilution factor (1:x)): 4000
B1: 单克隆抗体KZN2 (monoclonal antibody against SPINK1 produced by hybridoma CGMCC No.15800) (antibody, V domains shown)
VH: QVQLQQSGGGLVQPGGAMKLSCTASGFTFSDAWMYWVRQSPEKGLEWVAEIRNKAYNHATYYAESVKGRFTISGDDSKSSVYLQMNSLRAEDTGIYYCTTYDYWGQGTTVTVSS
VL: DIVMTQSPLSLPVSLGDQASISCRSSQSLVHGDGNTYLHWYLQKPGQSPNLLIYKISNRFSGVPDRFSGSGSGTDFTLKISRVEAEDLGVYFCSQNTHVPRTFGGGTKLEIK
